Experimental data reported in publication PMC4436829.
Read-outs that look alike come from different tables or passages of the source.

What was measured:
[1] = target: S15D NDC80 "Bonsai"-GFP complex; experiment: TIRF-based MT-binding assay
[2] = target: Taxol-stabilized microtubules (polymerized cow brain tubulin) (cow) (UniProt Q2HJ86); experiment: TIRF-based MT-binding assay
[3] = target: S15D NDC80 "Bonsai"-GFP complex; experiment: TIRF-based MT-binding assay; remark: listed apart in the source
[4] = target: Taxol-stabilized microtubules (polymerized cow brain tubulin) (cow) (UniProt Q2HJ86); experiment: FRAP
[5] = target: noD NDC80 "Bonsai"-GFP complex (wild-type Hec1 tail); experiment: FRAP
[6] = target: Taxol-stabilized microtubules (polymerized cow brain tubulin) (cow) (UniProt Q2HJ86); experiment: single-molecule TIRF microscopy
[7] = target: noD NDC80 "Bonsai"-GFP complex (wild-type Hec1 tail); experiment: TIRF-based MT-binding assay
[8] = target: S8,15,44,55D NDC80 "Bonsai"-GFP complex; experiment: FRAP
[9] = target: S8,15,44,55D NDC80 "Bonsai"-GFP complex; experiment: TIRF-based MT-binding assay

UniProt Q2HJ86, sequence (Q2HJ86 8-447, chain 1 of 2): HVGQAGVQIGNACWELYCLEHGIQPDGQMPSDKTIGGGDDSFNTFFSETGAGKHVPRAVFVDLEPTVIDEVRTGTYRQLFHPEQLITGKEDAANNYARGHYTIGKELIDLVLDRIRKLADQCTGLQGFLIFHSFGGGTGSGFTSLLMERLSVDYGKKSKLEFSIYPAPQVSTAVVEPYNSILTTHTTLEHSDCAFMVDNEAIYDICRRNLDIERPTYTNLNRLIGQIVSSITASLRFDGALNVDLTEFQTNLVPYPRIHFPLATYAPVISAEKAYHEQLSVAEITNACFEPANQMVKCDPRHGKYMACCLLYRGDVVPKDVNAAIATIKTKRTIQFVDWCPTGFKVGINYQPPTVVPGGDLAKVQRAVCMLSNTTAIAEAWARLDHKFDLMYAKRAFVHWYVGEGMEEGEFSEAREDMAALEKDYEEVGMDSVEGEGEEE
UniProt Q2HJ86, sequence (Q6B856 1-439, chain 2 of 2, further chain): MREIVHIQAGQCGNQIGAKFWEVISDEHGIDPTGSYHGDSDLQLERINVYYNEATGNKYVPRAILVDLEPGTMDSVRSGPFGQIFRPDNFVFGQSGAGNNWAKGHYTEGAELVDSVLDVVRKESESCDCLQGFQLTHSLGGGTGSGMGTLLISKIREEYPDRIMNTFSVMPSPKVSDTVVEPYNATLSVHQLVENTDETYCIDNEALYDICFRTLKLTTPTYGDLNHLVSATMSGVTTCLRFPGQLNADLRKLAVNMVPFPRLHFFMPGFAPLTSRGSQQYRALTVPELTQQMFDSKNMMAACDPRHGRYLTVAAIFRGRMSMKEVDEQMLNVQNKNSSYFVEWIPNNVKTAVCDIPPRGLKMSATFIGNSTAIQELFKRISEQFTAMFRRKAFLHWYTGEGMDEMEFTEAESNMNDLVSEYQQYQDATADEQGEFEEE

cooperativity parameter (ω) [1]	Kd [2] [nM]	stoichiometry N (molecules per tubulin dimer) [2]	cooperativity parameter (ω) [3]	FRAP recovery time [4] [s]	cooperativity parameter (ω) [5]	Kd [6] [nM]	residency time (τ = 1/koff) [6] [ms]	cooperativity parameter (ω) [7]	cooperativity parameter (ω) [8]	cooperativity parameter (ω) [9]	Substance
2	710	1.9	3								S15D NDC80 "Bonsai"-GFP complex
	530	1.9		0.29	2	640	417	3.33			noD NDC80 "Bonsai"-GFP complex (wild-type Hec1 tail)
	1920	1.9		0.084					2.4	2.6	S8,15,44,55D NDC80 "Bonsai"-GFP complex
